Measurements published in patent publication US20190234935A1 (Janssen / Centocor, published 2019).

Columns and labels:
Assay in all cases: FACS on transfected HEK293F cells
[1] = molecular target: T1, N-terminally flag tagged full-length GFRα2 on transiently transfected HEK293F cells (Homo sapiens (Human), UniProt O00451 22-444)
T1 sequence: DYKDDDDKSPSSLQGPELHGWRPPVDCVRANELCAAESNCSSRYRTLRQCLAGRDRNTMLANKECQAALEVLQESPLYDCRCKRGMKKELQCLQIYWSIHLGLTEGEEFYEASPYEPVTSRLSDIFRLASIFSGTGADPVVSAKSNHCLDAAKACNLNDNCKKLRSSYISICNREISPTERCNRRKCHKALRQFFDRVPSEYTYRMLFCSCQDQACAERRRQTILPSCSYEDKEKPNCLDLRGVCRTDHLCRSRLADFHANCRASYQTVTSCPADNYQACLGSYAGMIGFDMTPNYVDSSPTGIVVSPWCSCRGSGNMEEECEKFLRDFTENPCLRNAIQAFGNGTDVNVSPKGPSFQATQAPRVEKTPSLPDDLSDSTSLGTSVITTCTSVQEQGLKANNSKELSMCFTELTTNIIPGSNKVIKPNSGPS
Description: (§1) For the confirmation of specific binding of GDF15 to GFRAL, HEK293F cells expressing the N-terminally flag tagged GFRAL, GFRα1, GFRα2, GFRα3 or GFRα4 were incubated with Fc-GDF15 and the binding was analyzed by FACS. Briefly, transiently transfected cells were spun down two days post transfection, washed with 1×BD staining buffer (BD Pharmingen) and treated with 5 μg/ml of Fc-GDF15 by incubating at 4° C. for 1 hour in 1×BD staining buffer (BD Pharmingen). Cells were subsequently washed and stained with the secondary antibody, goat anti-human IgG conjugated with Alexa Fluor 647 (AF647, Life Technologies), at 4° C. for 30 min, for the detection of Fc-GDF15 binding. Cells from the same batch of transfection were also stained with an Fc isotype negative control, and with FITC-labeled anti-flag antibody (Sigma) for the detection of cell surface expression, and DAPI for live/dead staining. The stained cells were analyzed on BD Fortessa LSR.

[2] = molecular target: T2, N-terminally flag tagged full-length GFRα3 on transiently transfected HEK293F cells (Homo sapiens (Human), UniProt O60609 32-374)
T2 sequence: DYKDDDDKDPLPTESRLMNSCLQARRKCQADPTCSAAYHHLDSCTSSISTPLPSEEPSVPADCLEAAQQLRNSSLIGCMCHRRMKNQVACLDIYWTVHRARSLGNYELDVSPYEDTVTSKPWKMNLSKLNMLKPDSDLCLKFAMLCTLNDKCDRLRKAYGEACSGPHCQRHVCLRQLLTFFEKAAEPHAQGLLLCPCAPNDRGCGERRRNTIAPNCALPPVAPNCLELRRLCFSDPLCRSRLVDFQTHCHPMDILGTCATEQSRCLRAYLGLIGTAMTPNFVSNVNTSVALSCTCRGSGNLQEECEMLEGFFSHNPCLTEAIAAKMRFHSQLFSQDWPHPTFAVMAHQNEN
Description: as §1

[3] = molecular target: T3, N-terminally flag tagged full-length GFRα1 on transiently transfected HEK293F cells (Homo sapiens (Human), UniProt P56159 25-429)
T3 sequence: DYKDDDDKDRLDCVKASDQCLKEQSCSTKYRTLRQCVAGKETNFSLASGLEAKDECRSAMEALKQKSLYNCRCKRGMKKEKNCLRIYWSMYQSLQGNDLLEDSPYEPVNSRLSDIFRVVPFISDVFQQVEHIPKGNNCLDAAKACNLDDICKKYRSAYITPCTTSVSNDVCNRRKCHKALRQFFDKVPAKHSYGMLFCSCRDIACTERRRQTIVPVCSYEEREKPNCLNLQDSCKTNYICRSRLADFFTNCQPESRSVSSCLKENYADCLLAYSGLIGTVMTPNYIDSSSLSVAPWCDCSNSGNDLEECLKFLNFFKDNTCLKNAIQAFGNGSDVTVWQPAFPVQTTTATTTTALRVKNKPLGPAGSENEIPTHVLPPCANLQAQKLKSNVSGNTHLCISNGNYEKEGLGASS
Description: as §1

[4] = molecular target: T4, N-terminally flag tagged full-length GFRα4 on transiently transfected HEK293F cells (Homo sapiens (Human), UniProt Q9GZZ7 21-278)
T4 sequence: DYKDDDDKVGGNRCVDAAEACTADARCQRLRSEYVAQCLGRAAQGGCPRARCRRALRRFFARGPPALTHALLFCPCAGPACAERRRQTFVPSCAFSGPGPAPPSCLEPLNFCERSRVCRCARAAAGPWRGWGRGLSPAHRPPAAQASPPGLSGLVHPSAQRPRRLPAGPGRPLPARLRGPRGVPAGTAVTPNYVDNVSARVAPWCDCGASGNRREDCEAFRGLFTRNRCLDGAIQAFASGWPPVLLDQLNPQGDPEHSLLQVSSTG
Description: as §1

Measured: binding result

B1: heterodimeric Fc-GDF15 fusion molecule (Fc fusion)
chain 1: CPPCPAPEAAGGPSVFLFPPKPKDTLMISRTPEVTCVVVDVSQEDPEVQFNWYVDGVEVHNAKTKPREEQFNSTYRVVSVLTVLHQDWLNGKEYKCKVSNKGLPSSIEKTISKAKGQPREPQVYTLPPSQEEMTKNQVSLSCAVKGFYPSDIAVEWESNGQPENNYKTTPPVLDSDGSFFLVSRLTVDKSRWQEGNVFSCSVMHEALHNHYTQKSLSLSLGKGSGGGARNGDHCPLGPGRCCRLHTVRASLEDLGWADWVLSPREVQVTMCIGACPSQFRAANMHAQIKTSLHRLKPDTVPAPCCVPASYNPMVLIQKTDTGVSLQTYDDLLAKDCHCI
chain 2: CPPCPAPEAAGGPSVFLFPPKPKDTLMISRTPEVTCVVVDVSQEDPEVQFNWYVDGVEVHNAKTKPREEQFNSTYRVVSVLTVLHQDWLNGKEYKCKVSNKGLPSSIEKTISKAKGQPREPQVYTLPPSQEEMTKNQVSLWCLVKGFYPSDIAVEWESNGQPENNYKTTPPVLDSDGSFFLYSRLTVDKSRWQEGNVFSCSVMHEALHNHYTQKSLSLSLGK
notes: also called Fc-GDF15 ligand
no binding (tested: 5 µg/ml): [1] | [2] | [3] | [4]
